B1: TIP41 fragment D2 (pHA vector, HEK293T) (other)
chain: MMIHGFQSSHRDFCFGPWKLTASKTHIMKSADVEKLADELHMPSLPEMMFGDNVLRIQHGSGFGIEFNATDALRCVNNYQGMLKVACAEEWQESRTEGEHSKEVIKPYDWTYTTDYKGTLLGESLKLKVVPTTDHIDTEKLKAREQIKFFEEVLLFEDELHDHGVSSLSVKIRVMPSSFFLLLRFFLRIDGVLIRMNDTRLYHEADKTYMLREYTSRESKISSLMHVPPS
notes: also called TIP41-D2; not shown: HA tag of the pHA vector
B2: TIP41 in cell lysate (immunoprecipitated with TIP41 antibody; the cells' own TIP41) (other)
chain: MMIHGFQSSHRDFCFGPWKLTASKTHIMKSADVEKLADELHMPSLPEMMFGDNVLRIQHGSGFGIEFNATDALRCVNNYQGMLKVACAEEWQESRTEGEHSKEVIKPYDWTYTTDYKGTLLGESLKLKVVPTTDHIDTEKLKAREQIKFFEEVLLFEDELHDHGVSSLSVKIRVMPSSFFLLLRFFLRIDGVLIRMNDTRLYHEADKTYMLREYTSRESKISSLMHVPPSLFTEPNEISQYLPIKEAVCEKLIFPERIDPNPADSQKSTQVE
notes: also called TIPP41
B3: TIP41 (full length TIP41 protein expressed from the pHA vector in HEK293T cells) (other)
chain: B2 chain
notes: Cloned from liver cancer cell RNA into pHA; also called TIPRL; TOR Signaling Pathway Regulator-Like; not shown: HA tag of the pHA vector (pcDNA3.1 with HA tag)
B4: TIP41 fragment D4 (pHA vector, HEK293T) (other)
chain: MLKVACAEEWQESRTEGEHSKEVIKPYDWTYTTDYKGTLLGESLKLKVVPTTDHIDTEKLKAREQIKFFEEVLLFEDELHDHGVSSL
notes: also called TIP41-D4; not shown: HA tag of the pHA vector
B5: TIP41 fragment D5 (pHA vector, HEK293T) (other)
chain: MMIHGFQSSHRDFCFGPWKLTASKTHIMKSADVEKLADELHMPSLPEMMFGDNVLRIQHGSGFGIEFNATDALRCVNNYQGMLKVACAEEWQESRTEGEH
notes: also called TIP41-D5; not shown: HA tag of the pHA vector
B6: TIP41 fragment D1 (pHA vector, HEK293T) (other)
chain: MMIHGFQSSHRDFCFGPWKLTASKTHIMKSADVEKLADELHMPSLPEMMFGDNVLRIQHGSGFGIEFNATDALRCVNNYQGMLKVACAEEWQESRTEGEHSKEVIKPYDWTYTTDYKGTLLGESLKLKVVPTTDHIDTEKLKAREQIKFFEEVLLFEDELHDHGVSSL
notes: also called TIP41-D1; not shown: HA tag of the pHA vector
B7: MKK7 fragment D5 (pGST vector, HEK293T) (other)
chain: AGCAAYMAPERIDPPDPTKPDYDIRADVWSLGISLVELATGQFPYKNCKTDFEVLTKVLQEEPPLLPGHMGFSGDFQSFVKDCLTKDHRKRPKYNKLLEHSFIKRYETLEVDVASWFKDVMAKTESPRTSGVLSQPHLPFFR
notes: also called MKK7-D5; not shown: GST tag of the pGST expression vector

Experiment [1] addresses T1, MKK7 (full length MKK7 expressed from the pGST vector in HEK293T cells) (human, UniProt O14733 1-419).
T1 construct: also called full length MKK protein; not shown: GST tag of the pGST (pEBG) vector
T1 sequence: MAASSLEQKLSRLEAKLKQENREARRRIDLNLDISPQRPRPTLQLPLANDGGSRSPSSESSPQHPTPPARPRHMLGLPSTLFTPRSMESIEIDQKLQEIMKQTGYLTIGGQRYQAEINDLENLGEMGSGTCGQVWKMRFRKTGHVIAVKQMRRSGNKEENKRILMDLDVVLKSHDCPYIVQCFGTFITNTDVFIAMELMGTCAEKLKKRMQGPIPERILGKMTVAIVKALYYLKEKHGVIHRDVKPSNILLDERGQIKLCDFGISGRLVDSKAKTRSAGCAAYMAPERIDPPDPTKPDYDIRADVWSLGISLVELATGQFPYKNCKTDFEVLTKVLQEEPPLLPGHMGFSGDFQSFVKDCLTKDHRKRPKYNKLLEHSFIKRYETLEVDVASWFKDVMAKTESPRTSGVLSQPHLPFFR
Briefly: GST pull-down from HEK293T lysate, Western blot. (In western blotting, separated proteins are transferred to a membrane and probed.)

The target in experiment [2] is T2, MKK7 in cell lysate (immunoprecipitated with MKK7 antibody; the cells' own MKK7) (human, UniProt O14733 2-419, limits assumed).
T2 sequence: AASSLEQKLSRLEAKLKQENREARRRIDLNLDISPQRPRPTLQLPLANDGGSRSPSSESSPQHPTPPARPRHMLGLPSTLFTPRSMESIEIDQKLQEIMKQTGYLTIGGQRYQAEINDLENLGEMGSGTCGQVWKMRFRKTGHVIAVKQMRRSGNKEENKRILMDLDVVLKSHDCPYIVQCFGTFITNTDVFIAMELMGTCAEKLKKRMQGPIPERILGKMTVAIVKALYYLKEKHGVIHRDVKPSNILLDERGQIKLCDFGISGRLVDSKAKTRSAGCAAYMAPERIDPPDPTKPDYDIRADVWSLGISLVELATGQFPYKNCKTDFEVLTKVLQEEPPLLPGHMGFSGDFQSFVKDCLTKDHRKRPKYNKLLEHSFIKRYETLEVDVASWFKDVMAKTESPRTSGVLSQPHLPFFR
Kind of experiment: immunoprecipitation (legend of FIG. 11B). The procedure:
In order to identify interaction between TIP41 and MKK7, each antibody was used to perform immunoprecipitation, and binding between TIP41 and MKK7 was identified with Western Blotting. Immunoprecipitation is done by adding about 2 μg antibody of protein to be precipitated into 1 mg cell lysate and reacted for about 2 hours in about 4° C., and add about 30 μl Protein G sepharose bead into each and react for about 12 hours in about 4° C. Afterwards, about 1 ml PBST[0.1% Tween20 included PBS] buffer was added for washing, and the procedure was repeated for about 4 times. Then 100 μl 1× sample buffer (for Western Blotting) was added into the washed bead, and then it was boiled for about 5 minutes in about 95° C. heating block, and was cooled in ice for about 2 minutes. Afterwards, Western Blotting was performed using MKK7 and TIP41 antibody.

The target of experiment [3] is T3, MKK7 fragment D1 (pGST vector, HEK293T) (human, UniProt O14733 85-419, limits assumed).
T3 construct: also called MKK7-D1; not shown: GST tag of the pGST expression vector
T3 sequence: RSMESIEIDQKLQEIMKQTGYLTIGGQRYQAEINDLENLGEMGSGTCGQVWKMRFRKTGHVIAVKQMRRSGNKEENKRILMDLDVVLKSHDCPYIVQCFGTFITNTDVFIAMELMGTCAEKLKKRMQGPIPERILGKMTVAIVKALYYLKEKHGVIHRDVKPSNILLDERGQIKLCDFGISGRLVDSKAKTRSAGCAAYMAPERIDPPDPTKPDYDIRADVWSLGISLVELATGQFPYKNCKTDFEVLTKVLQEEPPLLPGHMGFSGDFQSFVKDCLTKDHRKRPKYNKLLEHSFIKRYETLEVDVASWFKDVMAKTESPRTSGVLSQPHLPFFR
Briefly: GST pull-down from HEK293T lysate, Western blot.

In experiment [4] the target is B3. Kind of experiment: GST pull-down from HEK293T lysate, Western blot.

On to B1, for which the binding result in experiment [1] is listed as “no binding”. Regarding B2, the binding result in experiment [2] is on record as “binds”. In the case of B3, the binding result in experiment [3] was “no binding”. Consider B4, for which the binding result in experiment [1] was “no binding”.

Turning to B5, the binding result in experiment [1] is “no binding”. For the molecule B6, the binding result in experiment [1] was “no binding”. For B7, the binding result in experiment [4] is “no binding”.

Values taken from US20120315284A1 (KOREA RESEARCH INSTITUTE OF BIOSCIENCE AND BIOTECH, published 2012).
